The record followed here is patent US12226490B2, “Anti-ROR1 antibody conjugates, compositions comprising anti ROR1 antibody conjugates, and methods of making and using anti-ROR1 antibody conjugates preliminary class” (Sutro Biopharma, Inc., priority 2022, dated 2025).

In one series the target is T1, human ROR1-Fz (Homo sapiens, UniProt Q01973).
T1 construct: Frizzled (Fz, residues 165-305); HIS6 (C); purchased Acro Biosystems; host or cells: HEK293
The series is described as follows: Biacore off-rate and kinetic analysis, ROR1 frizzled domain. In kind it is binding. Conditions: for kd1 / ka1: Sample ROR1 Fz, SPR; for ka1: 1-1 Langmuir; for Biacore human ROR1-Fz ka / Biacore human ROR1-Fz kd: Table 11 (SP34 light chain). The method, then: Anti-Fc polyclonal antibodies were immobilized onto a CM5 chip (GE Life Sciences) using amine coupling chemistry (from Amine Coupling Kit, GE Life Sciences). The immobilization steps were carried out at a flow rate of 25 μL/min in 1×HBS-EP+ buffer (GE Life Sciences; 10× Stock diluted before use). The sensor surfaces were activated for 7 min with a mixture of NHS (0.05 M) and EDC (0.2 M). The Anti-Fc antibodies were injected over all 4 flow cells at a concentration of 25 ug/ml in 10 mM sodium acetate, pH 4.5, for 7 min. Ethanolamine (1 M, pH 8.5) was injected for 7 min to block any remaining activated groups. An average of 12,000 response units (RU) of capture antibody was immobilized on each flow cell.
Off-rate and kinetic binding experiments were performed at 25° C. using 1×HBS-EP+ buffer. Test and control antibodies were injected over the anti-Fc surface at concentrations of 5-10 μg/mL for 12 seconds at a flow rate of 10 μL/min on flow cells 2, 3 and 4, followed by a buffer wash for 30 seconds at the same flow rate. Kinetic characterization of antibody samples was carried out with a range of antigen concentrations from 1-100 nM and 1 injection of 0 nM antigen (for example, 100, 50, 25, 6.25, 1.56 and 0 nM). After capturing ligand (antibody) on the anti-Fc surface, the analyte (hROR1, Fz or Kr domains, Acro Biosystems, Delaware) was bound for 180 seconds, followed by a 600 second dissociation phase at a flow rate of 50 μL/min. Between each ligand capture and analyte binding cycle, regeneration was carried out using 2 injections of 10 mM Glycine pH 2.0 for 30 seconds at 30 μL/min, followed by a 30 second buffer wash step.
The data was fit with the Biacore T200 Evaluation software, using a 1-1 Langmuir binding model. KD (affinity, nM) was determined as a ratio of the kinetic rate constants calculated from the fits of the association and dissociation phases.
For anti-CD3-LC-containing IgGs that had detectable ROR1-binding in ELISA (1944-A07 and 1987-C05 variants), those antibodies were further tested for binding by surface plasmon resonance (SPR). Binding kinetics were assessed to the ROR1-frizzled domain (hROR1-Fz) or the ROR1-extracellular domain (hROR1) for 1944-A07 and 1987-C05 variants, respectively. Briefly, anti-ROR1 antibodies were captured via anti-human Fc polyclonal antibodies immobilized to a CM5 chip, and ROR1 recombinant proteins were flowed across the surface to assess binding kinetics. hROR1 or hROR1-Fz domain (Acro Biosystems, Delaware) binding was tested at 100, 50, 25, 6.25, 1.5625 nM. The data was fit with the Biacore™ T200 Evaluation software, using a 1-1 Langmuir binding model. KD (affinity, nM) was determined as a ratio of the kinetic rate constants calculated from the fits of the association and dissociation phases.
A general note: Surface plasmon resonance follows binding to a sensor surface in real time, without labels.

Series [1] in a line: Differential scanning fluorimetry (protein thermal shift; TM1 Fc, TM2 Fab). In kind it is physicochemical. Conditions: melting temperature of the Fab domain; Table 11. The method, then:
A protein thermal shift assay was carried out by mixing the protein to be assayed with an environmentally sensitive dye (SYPRO Orange, Life Technologies Cat #S-6650) in a phosphate buffered solution (PBS), and monitoring the fluorescence of the mixture in real time as it underwent controlled thermal denaturation. Protein solutions between 0.2-2 mg/mL were mixed at a 1-1 volumetric ratio with a 1-500 PBS-diluted solution of SYPRO Orange (SYPRO Orange stock dye is 5000× in DMSO). 10 μL aliquots of the protein-dye mixture were dispensed in quadruplicate in a 384-well microplate (Bio-Rad Cat #MSP-3852), and the plate was sealed with an optically clear sealing film (Bio-Rad Cat #MSB-1001) and placed in a 384-well plate real-time thermocycler (Bio-Rad CFX384 Real Time System). The protein-dye mixture was heated from 25° C. to 95° C., at increments of 0.1° C. per cycle (˜1.5° C. per minute), allowing 3 seconds of equilibration at each temperature before taking a fluorescence measurement. At the end of the experiment, the transition melting temperatures (TM1 and TM2) were determined using the Bio-Rad CFX manager software. TM1 represents the melting temperature of the Fc domain. TM2 represents the melting temperature of the Fab domain.
For the thermal stability of an antibody, the first melting peak (Tm1) coincides with the unfolding of the CH2 domain (FC stability), while the second melting peak (Tm2) occurs upon unfolding of the Fab domain.

T1 sequence (Q01973 165-305): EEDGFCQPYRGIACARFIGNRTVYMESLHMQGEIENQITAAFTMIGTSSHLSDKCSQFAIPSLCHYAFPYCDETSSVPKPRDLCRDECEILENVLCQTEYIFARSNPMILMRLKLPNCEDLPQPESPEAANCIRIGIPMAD

B1: 1944-A07 HC w/hUCHT1 LC3: HC of lead antibody 1944-A07 co-expressed with LC "derived from anti-CD3 antibodies": hUCHT1-LC3 (antibody, V domains shown)
VH: EVQLVESGGGLVQPGGSLRLSCAASGFNITGYYIHWVRQAPGKGLEWVGYISPNSGSTYYADSVKGRFTISADTSKNTAYLQMNSLRAEDTAVYYCARDSRRYVRPFDYWGQGTLVTVSS
VL: DIQMTQSPSTLSASVGDRVTITCRASQDIRNYLNWYQQKPGKAPKLLIYYTSRLHSGVPSRFSGSGSGTEYTLTISSLQPDDFATYYCQQGNTLPWTFGGGTKVEIK
Turning to B1, in the series with human ROR1-Fz, the kd1 was 0.119 s⁻¹ and the ka1 was found to be 1.85e+06 M⁻¹ s⁻¹.

B2: SRP2196-A01 (antibody, V domains shown)
VH: EVQLVESGGGLVQPGGSLRLSCAASGFNITGYYIHWVRQAPGKGLEWVGQISPNSGYTYYADSVKGRFTISADTSKNTAYLQMNSLRAEDTAVYYCARDSRRYVRGWDYWGQGTLVTVSS
VL: QAVVTQESALTTSPGETVTLTCRSSTGAVTTSNYANWVQEKPDHLFTGLIGGTNKRAPGVPARFSGSLIGDKAALTITGAQTEDEAIYFCALWYSNLWVFGGGTKLTVL
Consider B2, for which, in series [1], the TM2 came to 74 °C.

B3: SRP2196-A08 (antibody, V domains shown)
VH: EVQLVESGGGLVQPGGSLRLSCAASGFNITGYYIHWVRQAPGKGLEWVGYISPNSGSTYKADSVKGRFTISADTSRNTAYLQMNSLRAEDTAVYYCARDSRRYVRSWDYWGQGTLVTVSS
VL: QAVVTQESALTTSPGETVTLTCRSSTGAVTTSNYANWVQEKPDHLFTGLIGGTNKRAPGVPARFSGSLIGDKAALTITGAQTEDEAIYFCALWYSNLWVFGGGTKLTVL
As for B3, the TM2 in series [1] worked out at 69 °C. For the same molecule, in the series with human ROR1-Fz, the “Biacore human ROR1-Fz ka” value is 183000 M⁻¹ s⁻¹ and the “Biacore human ROR1-Fz kd” value was determined as 0.00078 s⁻¹.

B4: SRP2196-A04 (antibody, V domains shown)
VH: EVQLVESGGGLVQPGGSLRLSCAASGFNISPYYIHWVRQAPGKGLEWVGQIYPISGHTYQADSVKGRFTISADTSKNTAYLQMNSLRAEDTAVYYCARESRRYVGPFGYWGQGTLVTVSS
VL: QAVVTQESALTTSPGETVTLTCRSSTGAVTTSNYANWVQEKPDHLFTGLIGGTNKRAPGVPARFSGSLIGDKAALTITGAQTEDEAIYFCALWYSNLWVFGGGTKLTVL
With B4, in the series with human ROR1-Fz, the “Biacore human ROR1-Fz ka” value was found to be 139000 M⁻¹ s⁻¹ and the “Biacore human ROR1-Fz kd” value came to 0.000343 s⁻¹.

B5: SRP2196-A07 (antibody, V domains shown)
VH: EVQLVESGGGLVQPGGSLRLSCAASGFNITGYYIHWVRQAPGKGLEWVGQISPNSGSTYYADSVKGRFTISADTSKNTAYLQMSSLRAEDTAVYYCARDSRRYVRGWDYWGQGTLVTVSS
VL: QAVVTQESALTTSPGETVTLTCRSSTGAVTTSNYANWVQEKPDHLFTGLIGGTNKRAPGVPARFSGSLIGDKAALTITGAQTEDEAIYFCALWYSNLWVFGGGTKLTVL
Take B5: the TM2 in series [1] was 74 °C. Also, in the series with human ROR1-Fz, the “Biacore human ROR1-Fz ka” value came out at 186000 M⁻¹ s⁻¹ and the “Biacore human ROR1-Fz kd” value is 0.00064 s⁻¹.

B6: SRP2196-B05 (antibody, V domains shown)
VH: EVQLVESGGGLVQPGGSLRLSCAASGFNITGYYIHWVRQAPGKGLEWVGQISPNSGATYHADSVKGRFTISADTSKNTAYLQMNSLRAEDTAVYYCARDSRRYVRGWDYWGQGTLVTVSS
VL: QAVVTQESALTTSPGETVTLTCRSSTGAVTTSNYANWVQEKPDHLFTGLIGGTNKRAPGVPARFSGSLIGDKAALTITGAQTEDEAIYFCALWYSNLWVFGGGTKLTVL
For the molecule B6, in series [1], the TM2 turned out to be 73 °C.

B7: SRP2196-A03 (antibody, V domains shown)
VH: EVQLVESGGGLVQPGGSLRLSCAASGFNITQYHIHWVRQAPGKGLEWVGYISPNSGSTHEADSVKGRFTISADTSKNTAYLQMNSLRAEDTAVYYCARDSRRYVRGWDYWGQGTLVTVSS
VL: QAVVTQESALTTSPGETVTLTCRSSTGAVTTSNYANWVQEKPDHLFTGLIGGTNKRAPGVPARFSGSLIGDKAALTITGAQTEDEAIYFCALWYSNLWVFGGGTKLTVL
B7: the TM2 in series [1] came out at 70 °C. In the series with human ROR1-Fz, the “Biacore human ROR1-Fz ka” value came to 169000 M⁻¹ s⁻¹ and the “Biacore human ROR1-Fz kd” value turned out to be 0.000275 s⁻¹.

B8: 1944-A07 HC w/hSP34 LC3: HC of lead antibody 1944-A07 co-expressed with LC "derived from anti-CD3 antibodies": hSP34-LC3 (antibody, V domains shown)
VH: EVQLVESGGGLVQPGGSLRLSCAASGFNITGYYIHWVRQAPGKGLEWVGYISPNSGSTYYADSVKGRFTISADTSKNTAYLQMNSLRAEDTAVYYCARDSRRYVRPFDYWGQGTLVTVSS
VL: QTVVTQEPSLTVSPGGTVTLTCGSSTGAVTSGYYPNWFQQKPGQAPRGLIGGTKFLAPGTPARFSGSLLGGKAALTLSGVQPEDEAEYYCALWYSNRWVFGGGTQLTVTG
Regarding B8, in the series with human ROR1-Fz, the kd1 was determined as 0.00228 s⁻¹ and the ka1 turned out to be 360000 M⁻¹ s⁻¹.

B9: SRP2196-A02 (antibody, V domains shown)
VH: EVQLVESGGGLVQPGGSLRLSCAASGFNITGYYIHWVRQAPGKGLEWVGQISPNSGATHDADSVKGRFTISADTSKNTAYLQMNSLRAEDTAVYYCARDSRRYVRGWDYWGQGTLVTVSS
VL: QAVVTQESALTTSPGETVTLTCRSSTGAVTTSNYANWVQEKPDHLFTGLIGGTNKRAPGVPARFSGSLIGDKAALTITGAQTEDEAIYFCALWYSNLWVFGGGTKLTVL
On to B9, for which, in series [1], the TM2 was 71 °C.

B10: SRP1944-A07 w SP34 LC3 (antibody, V domains shown)
VH: EVQLVESGGGLVQPGGSLRLSCAASGFNITGYYIHWVRQAPGKGLEWVGYISPNSGSTYYADSVKGRFTISADTSKNTAYLQMNSLRAEDTAVYYCARDSRRYVRPFDYWGQGTLVTVSS
VL: QTVVTQEPSLTVSPGGTVTLTCGSSTGAVTSGYYPNWFQQKPGQAPRGLIGGTKFLAPGTPARFSGSLLGGKAALTLSGVQPEDEAEYYCALWYSNRWVFGGGTQLTVTG
On to B10, for which, in the series with human ROR1-Fz, the “Biacore human ROR1-Fz ka” value turned out to be 597000 M⁻¹ s⁻¹ and the “Biacore human ROR1-Fz kd” value worked out at 0.0085 s⁻¹.

B11: SRP2196-A06 (antibody, V domains shown)
VH: EVQLVESGGGLVQPGGSLRLSCAASGFNITGYYIHWVRQAPGKGLEWVGQISPNSGSTHQADSVKGRFTISADTSKNTAYLQMNSLRAGDTAVYYCARDSRRYVRGWDYWGQGTLVTVSS
VL: QAVVTQESALTTSPGETVTLTCRSSTGAVTTSNYANWVQEKPDHLFTGLIGGTNKRAPGVPARFSGSLIGDKAALTITGAQTEDEAIYFCALWYSNLWVFGGGTKLTVL
Take B11: in series [1], the TM2 is 70 °C. Besides, in the series with human ROR1-Fz, the “Biacore human ROR1-Fz ka” value worked out at 180000 M⁻¹ s⁻¹ and the “Biacore human ROR1-Fz kd” value was found to be 0.00069 s⁻¹.

B12: SRP2196-A05 (antibody, V domains shown)
VH: EVQLVESGGGLVQPGGSLRLSCAASGFNITNYYIHWVRQAPGKGLEWVGYISPNSGATYQADSVKGRFTISADTSKNTAYLQMNSLRAEDTAVYYCARDSRRYVRSWDYWGQGTLVTVSS
VL: QAVVTQESALTTSPGETVTLTCRSSTGAVTTSNYANWVQEKPDHLFTGLIGGTNKRAPGVPARFSGSLIGDKAALTITGAQTEDEAIYFCALWYSNLWVFGGGTKLTVL
In the case of B12, the TM2 in series [1] turned out to be 71 °C. In addition, in the series with human ROR1-Fz, the “Biacore human ROR1-Fz ka” value came out at 175000 M⁻¹ s⁻¹ and the “Biacore human ROR1-Fz kd” value came out at 0.000682 s⁻¹.
